Laboratory results from PMC6392133, “Structure and Catalytic Mechanism of a Bacterial Friedel–Crafts Acylase” (Chembiochem, 2018).

Legend:
[1] = molecular target: T1, PpATase (multicomponent acyltransferase, PhlA/PhlB/PhlC) (Pseudomonas protegens, UniProt Q4K420); test: X-ray crystal structure ([…] Å) of crystal soaked with MAPG; type: binding; details: PG bound at PhlC active site (4 of 8 PhlC copies) next to acetylated Cys88; formed in the crystal from soaked MAPG
T1 construct: codon-optimized phlA, phlB, phlC ORFs co-expressed in E. coli; size-exclusion purified for crystals, cell-free extract for activity; heterododecamer Phl(A2C2)2B4; with 2,4-diacetylphloroglucinol biosynthesis protein PhlA; 2,4-diacetylphloroglucinol biosynthesis protein PhlB

[2] = molecular target: PhlA subunit of the acyltransferase from Pseudomonas protegens DSM 19095 (PpATase) (Pseudomonas protegens DSM 19095); test: crystal structure; PpATase complex (PhlA, PhlB, PhlC co-expressed, purified by SEC); hexagonal crystal form (P6_(1)22, untreated, 2.8 Å) and orthorhombic crystal form (P2_(1)2_(1)2_(1), soaked with MAPG, 3.4 Å); crystallised at 289 K; protein-protein interactions in the crystal analysed with the EBI-Pisa server
[3] = molecular target: PhlC subunit of the acyltransferase from Pseudomonas protegens DSM 19095 (PpATase) (Pseudomonas protegens DSM 19095); test: as above

With `Oc1cc(O)cc(O)c1` [PG, benzene‐1,3,5‐triol] the “X-ray crystal structure (3.4 Å) of crystal soaked with MAPG” value [1] was “This density was compatible with an acetylated Cys88 residue and with a (deacetylated) PG molecule”.
Compound “PhlA subunit of the acyltransferase from Pseudomonas protegens DSM 19095 (PpATase) (natural protein)” has a stoichiometry N [2] of 2.
Compound “PhlC subunit of the acyltransferase from Pseudomonas protegens DSM 19095 (PpATase) (natural protein)” has a stoichiometry N [3] of 2.
